Reference: article PMC10929192 (2024)
Each block holds one binder with its values, some of them ahead of it.

Target: human PKM2 Ag (M2 splice isoform of pyruvate kinase), purified (human, UniProt P14618 1-531)
Test: SPR

human PKM2 Ag (M2 splice isoform of pyruvate kinase), purified, sequence (P14618 whole entry, canonical isoform): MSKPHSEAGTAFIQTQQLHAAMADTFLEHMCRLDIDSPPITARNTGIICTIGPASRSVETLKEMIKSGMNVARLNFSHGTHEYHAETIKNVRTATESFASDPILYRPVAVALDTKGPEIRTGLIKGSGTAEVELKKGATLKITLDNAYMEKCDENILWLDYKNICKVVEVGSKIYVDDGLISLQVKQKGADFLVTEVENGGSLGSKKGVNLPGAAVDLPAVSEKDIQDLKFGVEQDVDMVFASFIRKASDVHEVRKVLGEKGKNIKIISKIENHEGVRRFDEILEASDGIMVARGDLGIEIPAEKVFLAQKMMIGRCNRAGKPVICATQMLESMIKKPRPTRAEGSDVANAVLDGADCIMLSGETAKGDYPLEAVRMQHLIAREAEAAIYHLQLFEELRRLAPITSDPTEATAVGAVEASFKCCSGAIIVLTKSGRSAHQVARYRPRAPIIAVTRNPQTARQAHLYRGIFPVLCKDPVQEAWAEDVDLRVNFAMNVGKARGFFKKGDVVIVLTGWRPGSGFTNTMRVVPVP

Kd: 0.228 nM
B1: human full-length H103 Ab (anti-PKM2 antibody, IgG1) (antibody, V domains shown)
VH: QVQLQESGPGLVRPSGTLSLICAVSGDSISSSIWWSWVRQSPGKGLEWIGYIYHNGNTYYNPSLESRVTISVDTSENQFSLKLSSVTAADTAVYYCARGYDSSGYYWTDDRYYFDYWGQGTLVTVSS
VL: NFMLTQPHSVSESPGKTVTISCTGSSGSIASNYVQWYQQRPGSAPTTVIYEDNQRPPGVPDRFSGSIDSSSNSASLTISALETEDEADYYCQSYDSRNIDVVFGGGTKVTVL

Kd: 0.632 nM
B2: Na2S2O4-cleaved HAP103 Ab (act-HAP103) (antibody, V domains shown)
VH: B1 VH
VL: B1 VL
